Assay results from patent US20040054158A1 (GENETICS INSTITUTE, published 2004).

T1: murine GL50-1 (mGL50-1) expressed on transfected COS cells (mouse, UniProt Q9JHJ8 47-322)
T1 construct: 322 amino acid protein
T1 sequence: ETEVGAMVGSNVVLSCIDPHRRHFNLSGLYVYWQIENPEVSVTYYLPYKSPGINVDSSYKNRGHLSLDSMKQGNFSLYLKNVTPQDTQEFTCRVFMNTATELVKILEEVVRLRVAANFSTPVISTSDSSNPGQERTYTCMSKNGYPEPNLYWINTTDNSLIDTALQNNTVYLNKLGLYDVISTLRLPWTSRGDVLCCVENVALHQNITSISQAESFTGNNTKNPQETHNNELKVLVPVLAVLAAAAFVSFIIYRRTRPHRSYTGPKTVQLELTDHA

T2: murine GL50-2 (mGL50-2) expressed on transfected COS cells (mouse, UniProt Q9JHJ8 44-320)
T2 construct: Alternatively spliced form of 347 residues; also called mGL50-B
T2 sequence: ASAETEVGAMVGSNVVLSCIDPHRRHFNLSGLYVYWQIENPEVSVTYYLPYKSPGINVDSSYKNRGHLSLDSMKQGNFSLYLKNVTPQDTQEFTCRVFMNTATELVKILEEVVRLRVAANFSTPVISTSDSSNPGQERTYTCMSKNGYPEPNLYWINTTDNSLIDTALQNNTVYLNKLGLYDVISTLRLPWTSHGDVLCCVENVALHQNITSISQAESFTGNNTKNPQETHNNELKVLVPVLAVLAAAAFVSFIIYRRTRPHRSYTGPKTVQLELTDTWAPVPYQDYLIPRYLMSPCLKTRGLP

T3: CD28-Ig (mouse, UniProt P31041 20-150)
T3 construct: not shown: Ig part not described
T3 sequence (looked up): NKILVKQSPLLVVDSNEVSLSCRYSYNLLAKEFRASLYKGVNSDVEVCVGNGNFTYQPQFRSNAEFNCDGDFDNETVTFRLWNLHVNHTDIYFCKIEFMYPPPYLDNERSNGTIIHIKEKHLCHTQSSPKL

T4: mouse B7-1 on cells (WEHI 231, undifferentiated ES cells) (mouse, UniProt Q00609 38-306)
T4 construct: whole, on cells; also called CD80
T4 sequence (looked up): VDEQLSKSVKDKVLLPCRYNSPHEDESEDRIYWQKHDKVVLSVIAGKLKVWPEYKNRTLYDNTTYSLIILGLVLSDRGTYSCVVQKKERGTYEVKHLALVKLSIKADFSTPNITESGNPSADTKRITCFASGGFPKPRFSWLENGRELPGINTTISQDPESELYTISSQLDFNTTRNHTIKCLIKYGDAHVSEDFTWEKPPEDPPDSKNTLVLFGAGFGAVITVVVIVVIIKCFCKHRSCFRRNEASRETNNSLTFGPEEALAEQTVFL

T5: mouse B7-2 on WEHI 231 cells (mouse, UniProt P42082 24-309)
T5 construct: whole, on cells; also called CD86
T5 sequence (looked up): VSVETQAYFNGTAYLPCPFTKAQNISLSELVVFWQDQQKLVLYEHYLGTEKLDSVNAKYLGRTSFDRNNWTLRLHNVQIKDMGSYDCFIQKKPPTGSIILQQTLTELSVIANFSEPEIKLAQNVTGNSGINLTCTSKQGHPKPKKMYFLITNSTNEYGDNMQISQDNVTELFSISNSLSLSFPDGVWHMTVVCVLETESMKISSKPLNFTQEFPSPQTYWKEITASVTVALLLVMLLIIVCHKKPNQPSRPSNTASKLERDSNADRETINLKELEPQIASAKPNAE

B1: hICOS-mIgG2am (Fc fusion)
chain: EINGSANYEMFIFHNGGVQILCKYPDIVQQFKMQLLKGGQILCDLTKTKGSGNTVSIKSLKFCHSQLSNNSVSFFLYNLDHSHANYYFCNLSIFDPPPFKVTLTGGYLHIYESQLCCQLKFEPRGPTIKPCPPCKCPAPNLEGGPSVFIFPPKIKDVLMISLSPIVTCVVVDVSEDDPDVQISWFVNNVEVHTAQTQTHREDYNSTLRVVSALPIQHQDWMSGKAFACAVNNKDLPAPIERTISKPKGSVRAPQVYVLPPPEEEMTKKQVTLTCMVTDFMPEDIYVEWTNNGKTELNYKNTEPVLDSDGSYFMYSKLRVEKKNWVERNSYSCSVVHEGLHNHHTTKSFSRTPGK
notes: Fusion of human ICOS with the mutated mouse IgG2a domain
B2: human DAP-12 expressed on transfected COS cells (other, UniProt O43914 22-113, looked up)
chain: LRPVQAQAQSDCSCSTVSPGVLAGIVMGDLVLTVLIALAVYFLGRLVPRGRGAAEAATRKQRITETESPYQELQGQRSDVYSDLNTQRPYYK
notes: whole, on cells; Negative control transfectant
B3: mICOS-mIgG2am (Fc fusion)
chain: EINGSADHRMFSFHNGGVQISCKYPETVQQLKMRLFREREVLCELTKTKGSGNAVSIKNPMLCLYHLSNNSVSFFLNNPDSSQGSYYFCSLSIFDPPPFQERNLSGGYLHIYESQLCCQLKLEPRGPTIKPCPPCKCPAPNLEGGPSVFIFPPKIKDVLMISLSPIVTCVVVDVSEDDPDVQISWFVNNVEVHTAQTQTHREDYNSTLRVVSALPIQHQDWMSGKAFACAVNNKDLPAPIERTISKPKGSVRAPQVYVLPPPEEEMTKKQVTLTCMVTDFMPEDIYVEWTNNGKTELNYKNTEPVLDSDGSYFMYSKLRVEKKNWVERNSYSCSVVHEGLHNHHTTKSFSRTPGK
notes: Fusion of mouse ICOS with a mouse IgG2a domain mutated to reduce effector function; also called ICOS-Ig; ICOS Ig

Experiments:
[1] = biological target: T1, murine GL50-1 (mGL50-1) expressed on …; assay: flow cytometry on transfected COS cells
[2] = biological target: T2, murine GL50-2 (mGL50-2) expressed on …; assay: flow cytometry on transfected COS cells
[3] = biological target: T3, CD28-Ig; assay: flow cytometry on transfected COS cells
[4] = biological target: B2; assay: flow cytometry on transfected COS cells
[5] = biological target: T4, mouse B7-1 on cells (WEHI 231, …); assay: flow cytometry on WEHI 231 cells with blocking anti B7-1 and B7-2 antibodies
[6] = biological target: T5, mouse B7-2 on WEHI 231 cells; assay: as above

Binder: B1
binding result [1]: binds
binding result [2]: binds

Binder: B2
binding result [3]: no binding (tested: 5 µg/ml of fusion protein)

Binder: B3
binding result [4]: no binding (tested: 5 µg/ml of fusion protein)
binding result [5]: no binding
binding result [6]: no binding
